Test results as given in article PMC6416295.
pKd: −log10 of the molar value.

Tests used:
[1] = tested on: HlyU (Vibrio vulnificus MO6-24/O); test: EMSA; conditions: 10 mM Tris-Cl pH 7.5, 50 mM KCl, 5 mM MgCl2, 5% glycerol, 0.1 ug poly(dI-dC) in 20 ul, 5 nM DNA, 25 C, 0.5 h; 6% native PAGE
[2] = tested on: HlyU (Vibrio vulnificus MO6-24/O); test: EMSA; conditions: 10 mM Tris-Cl pH 7.5, 50 mM KCl, 5 mM MgCl2, 5% glycerol, 0.1 ug poly(dI-dC) in 20 ul, 5 nM DNA, 25 C, 0.5 h; 6% native PAGE; remark: listed apart in the source

PrtxA 264-bp
pKd [1]: 7.26
pKd [2]: 7.60
